Several values for one entry are separate records, joined by “and”; a condition that tells them apart may be missing. Equal values may be shown once.

The target of assay [1] is His6-YhaM^WT, recombinant wild-type S. aureus 3'-5' exoribonuclease YhaM (Staphylococcus aureus USA300 JE2). The assay can be described thus: SEC; 60 uM YhaM on HiPrep 16/60 Sephacryl S-100 HR, buffer B (40 mM HEPES pH 7.5, 0.5 M KCl, 10% glycerol); size by gel filtration standard.
Assay [2] shares this target. The assay can be described thus: mass photometry; TwoMP mass photometer, 30 nM protein, 50 mM Na-Tricine pH 8.0, 100 mM KCl without metal or with 1 mM MnSO4, MgSO4 or CoSO4.
For assay [3], the target named is YhaM^WT expressed in the S. aureus ΔyhaM mutant from a plasmid under its native promoter (Staphylococcus aureus USA300 JE2). The experiment in a line: cross-linking; in vivo, S. aureus ΔyhaM cells carrying pYhaM^WT (OD600 0.8), 1 mM glutaraldehyde for 1-2 h at room temperature, Western blot with anti-YhaM.

Take “His6-YhaM^WT, recombinant wild-type S. aureus 3'-5' exoribonuclease YhaM (enzyme)”: the stoichiometry N was 6 in assay [1]; 2 and 6 in assay [2]. In assay [2], the percent of particles in a hexameric state with Mn(II) came out at 80%.

Take “YhaM^WT expressed in the S. aureus ΔyhaM mutant from a plasmid under its native promoter (enzyme)”: the stoichiometry N in assay [3] is 6 and 2 and 4.

The record behind these values is PMC11347170, “Staphylococcal exoribonuclease YhaM destabilizes ribosomes by targeting the mRNA of a hibernation factor”.
